# According to US7989466B2, “Methods to inhibit or augment an inflammatory response” (Cambridge Enterprise Limited, priority 1999, dated 2011):
# Read-outs that look alike come from different tables or passages of the source. Positions of bridges follow the written chain, without caps; N, C: chain ends. Non-standard residues stand in square brackets, D forms with d. No end group written: not given here.
# How the values were obtained:
# [1] = target: T1, short splice variant D2 dopamine receptor (Homo sapiens, UniProt P14416); assay: Dopamine receptor membrane binding (3H-Spiperone); details: 100 μM highest concentration tested; read-out: ED50 for competition of spiperone binding to short splice variant D2 dopamine receptor
# T1 construct: purchased RBI/Sigma D-179
# T1 sequence (P14416 1-414 isoform P14416-2): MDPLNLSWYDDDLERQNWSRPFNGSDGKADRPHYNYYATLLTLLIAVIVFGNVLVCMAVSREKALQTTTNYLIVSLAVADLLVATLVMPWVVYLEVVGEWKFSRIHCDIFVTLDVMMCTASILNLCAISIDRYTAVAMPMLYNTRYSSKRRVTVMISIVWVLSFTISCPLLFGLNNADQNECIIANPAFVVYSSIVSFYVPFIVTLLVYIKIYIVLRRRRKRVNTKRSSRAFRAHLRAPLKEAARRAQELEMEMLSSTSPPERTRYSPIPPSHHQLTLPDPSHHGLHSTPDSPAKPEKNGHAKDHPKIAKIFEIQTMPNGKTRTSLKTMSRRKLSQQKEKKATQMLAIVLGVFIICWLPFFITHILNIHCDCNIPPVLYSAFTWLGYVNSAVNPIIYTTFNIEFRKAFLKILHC
# Method: For dopamine receptor binding, membranes (D-179, RBI/Sigma) are diluted into binding buffer (75 mM Tris pH 7.4, 12.5 mM MgCl2 and 2 mM EDTA). For example, 10 μl of membranes are diluted in 500 μl of binding buffer (i.e., 1:50 dilution), which is aliquoted into labelled tubes. Cold competitor or test competitor is added, (e.g., 5 μl of 100× stock solution; 5 μl of 1 mM haloperidol solution (H-100, RBI/Sigma in DMSO). Radioligand is then added (3H-Spiperone, TRK 818, Amersham, 250 μCi in 250 μl, 10.5 μM at 95 Ci/mmol). For competition studies, 0.5 nM is used. A 100× stock (i.e., 50 nM) is made by diluting the commercial stock 1:210 in binding buffer, and 5 μl is added to every tube. Control tubes have radioligand but no membranes. The mixtures are vortexed, then spun very briefly. The mixtures are then incubated for 1 hour at 27° C. in a water bath. The mixture is filtered through GF/C filters over a vacuum. Each filter is pre-soaked in polyethyleneimine (0.3% in water; add 1 ml of 10% stock (P-261; RBI/Sigma) to 33 ml of MilliQ water). The tubes are washed with 2-3 ml of wash buffer (50 mM Tris pH 7.4) and the wash filtered. The filters are then rinsed with 3×5 ml of wash buffer, air dried, placed in a scintillation vial and 4.5 ml of scintillant added. The activity on the filter is then determined.
# [2] = tested on: MCP-1 induced THP-1 migration; assay: THP-1 trans-well migration assay, MCP-1 as chemoattractant; type: cell-based, human; details: for EC50: Homo sapiens
# Outline: (§1)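 5×10^4 THP-1 cells with serially diluted peptide in upper chamber, 5 µm filter, recombinant human chemokine 50 ng/ml (5.9 nM) in lower chamber. Incubated 4 h at 37 °C. Migrated cells counted by MTT staining, A595 read against a THP-1 standard curve.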
# [3] = tested on: α2-adrenoceptors; assay: α2-adrenoreceptor membrane binding (3H-RS-79948-197)
# [4] = target: T2, CCR5 (Homo sapiens, UniProt P51681); assay: Scatchard analysis of labeled RANTES binding to CCR5 HOS cells; details: 4° C., 2 hours, read-out: affinity of RANTES binding sites
# T2 construct: host or cells: HOS cells
# T2 sequence (P51681 whole entry): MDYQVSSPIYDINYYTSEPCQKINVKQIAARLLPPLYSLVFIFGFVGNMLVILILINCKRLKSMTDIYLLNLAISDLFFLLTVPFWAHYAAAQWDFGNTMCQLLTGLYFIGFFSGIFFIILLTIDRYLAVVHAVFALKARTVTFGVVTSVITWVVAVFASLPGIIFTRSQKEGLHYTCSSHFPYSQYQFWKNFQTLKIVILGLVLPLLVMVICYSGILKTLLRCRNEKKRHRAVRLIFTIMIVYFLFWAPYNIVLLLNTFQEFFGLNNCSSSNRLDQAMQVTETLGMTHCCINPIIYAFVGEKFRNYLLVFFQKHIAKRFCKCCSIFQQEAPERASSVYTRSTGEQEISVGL
# Method: To establish the kinetics of labeled RANTES binding to CCR5, CCR5 cells and their parental line were exposed to labeled RANTES at 0.05 nM in the absence or presence of a 500-fold excess of unlabeled RANTES. Binding was performed at either 4° C. or room temperature for various periods between 30 minutes and 4 hours. All data was collected in triplicate. Equilibrium was achieved slightly quicker at room temperature than 4° C., and that in both cases binding was complete by 2 hours (FIG. 22A). […] Based on this experiment, all binding experiments were done at 4° C. for 2 hours.
# A Scatchard analysis was performed under the conditions determined to represent equilibrium binding. The purpose of this experiment was to estimate the number of high affinity binding sites (CCR5 receptors) on the cell surface, since the full Scatchard analysis is performed under conditions where the binding was limited by availability of binding sites, not by number of molecules RANTES added. The result indicated about 80,000 binding sites per cell on the parental line and about 200,000-400,000 binding sites per cell on the high expressing CCR5 line. Using this information, the conditions necessary to perform a full 12-point Scatchard analysis at equilibrium, limited by binding site number, were calculated. […]
# [5] = target: T3, Duffy Antigen Receptor for Chemokines (DARC) (Homo sapiens, UniProt Q16570); assay: DARC binding: competition with 125I-MCP-1 on red blood cells
# T3 sequence (Q16570 1-336): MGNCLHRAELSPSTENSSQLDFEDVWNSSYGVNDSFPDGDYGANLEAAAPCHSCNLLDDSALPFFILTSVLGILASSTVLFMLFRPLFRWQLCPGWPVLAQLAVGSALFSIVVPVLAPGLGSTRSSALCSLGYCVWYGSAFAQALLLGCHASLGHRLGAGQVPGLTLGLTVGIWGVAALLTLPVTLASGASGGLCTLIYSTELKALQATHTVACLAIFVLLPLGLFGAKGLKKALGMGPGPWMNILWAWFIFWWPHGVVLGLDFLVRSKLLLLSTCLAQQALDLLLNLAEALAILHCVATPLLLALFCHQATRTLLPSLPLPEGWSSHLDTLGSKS
# [6] = tested on: MIP1α induced THP-1 migration; assay: THP-1 trans-well migration assay, MIP1α as chemoattractant; type: cell-based, human; details: ns = not significantly different from control
# Outline: as §1
# [7] = target: CCR5/CXCR4; assay: Affinity for CCR5/CXCR4; type: binding; details: read-out: affinity constant for CCR5/CXCR4
# [8] = tested on: HIV; type: cell-based; details: ns = not significantly different from control
# [9] = tested on: gp120; details: ns = not significantly different from control; >100 = ED50 not determined
# [10] = tested on: SDF-1α induced THP-1 migration; assay: THP-1 trans-well migration assay, SDF-1α as chemoattractant; type: cell-based, human; details: ns = not significantly different from control
# Outline: as §1
# [11] = mouse, in vivo, sc
# [12] = rat, in vivo
molecule,measurement,setting,value
"O=C1CCC(N2C(=O)c3ccccc3C2=O)C(=O)N1 (stereo not drawn) [Thalidomide, reference compound]",IC50,[1],> 100000 nM
same,"activity in the MCP-1 induced THP-1 migration assay, in words",[2],at 100 μM also inhibited THP-1 migration induced by MCP-1
same,EC50,"[2]; THP-1, agent with the cells in the upper compartment, n.s. = no statistically significant inhibition (p > 0.05), read-out: ED50 versus MCP-1, inhibition of THP-1 migration",~50000 nM
"NC(=O)C1C(O)CCC2CN3CCc4c([nH]c5ccccc45)C3CC21 (stereo not drawn) [Y-II, Yohimban-17-amide]",EC50,"[2]; THP-1, read-out: ED50 versus MCP-1 induced chemotaxis of THP-1",0.5 nM
same,selectivity for chemokine inhibition of alpha-adrenoreceptor binding,[3],"1,500 fold"
RANTES,Kd,[4],~1 nM
Vaekpcksstirrys (V[dA][dE][dK][dP][dC][dK][dS][dS][dT][dI][dR][dR][dY][dS]) [LRD peptide 2(1-15)[MCP-1]],decrease in Duffy binding relative to the LFL peptide,[5],~100 fold
same,association (affinity) constant for DARC,[5]; red blood cells,25 µM
same,MIPIa ED-50,[6],ns
same,Kd,[7],≤ 100 nM
same,% virus inhibition,[8],72%
same,gp120 ED-50,[9],3 µM
same,MCP-1 ED-50,[2]; ns = not significantly different from control,ns
same,SDF1a ED-50,[10],ns
"^3H-CRD-L-Leu4Ile11Cys13 peptide 3(3-12)[MCP-1]: diastereomer of CRD-Leu4Ile11Cys13 peptide 3(3-12)[MCP-1] with L-leucine instead of D-leucine ([dC][dQ][dI][dW][dK][dQ][dK][dP][dD]L[dC]-NH2; disulfide 1-11; also: 3H-labelled, site not given here)",average serum concentration at 30 minutes post injection,[11],503 ng/g
same,A,[12],A: 48.88 μg/mL
same,AUC,[12],31430 ng·h/mL
same,B,[12],B: 63.64 μg/mL
same,Maximal concentration,[12],"1,710 ng mL^−1"
same,Maximal concentration/dose,[12],0.000017
same,Vd,[12],0.36 L/kg
same,dose accounted for in the 25 tissues and organs assayed at 3 hours post injection,[12],about 11 % i.d.
same,dose excreted in urine over the first 2 hours,[12],> 80 % i.d.
same,"injected radioactivity in the urine with a mass consistent with the intact, cyclized structure",[12],> 80%
same,serum concentration at 30 minutes,[12],591 ng/g
same,share of the total counts in the unwashed cell pellet at 10 minutes,[12],< 12%
same,α,[12],α: 9.59
same,β,[12],β: 2.42
same,dose eliminated in the urine over the first 4 hours,[12]; iv,86.6+/−16.5 % i.d.
same,injected dose present in blood by four hours post injection,[12]; iv,about 0.1%
same,"serum concentration at 10 minutes post injection, females",[12]; iv,1238 ± 138 ng/mL
same,"serum concentration at 10 minutes post injection, males",[12]; iv,1141 ± 283 ng/mL
same,"serum level at 10 minutes, females",[12]; iv,12.45±1.39 % of the injected dose
same,"serum level at 10 minutes, males",[12]; iv,14.38±3.46 % i.d.
same,Elimination half-life,"[12]; iv, 100 ug",11.4 min
same,alpha-phase T1/2,"[12]; iv, 100 ug",4.2 min
same,beta-phase T1/2,"[12]; iv, 100 ug",17.4 min
same,dose remaining in the blood by 2 hours,"[12]; iv, 2 h",less than 1 % i.d.
same,"activity in the MCP-1 induced THP-1 migration assay, in words",[2],retained functional activity
